Data taken from patent publication US12441790B2, “Binding proteins to the human thrombin receptor, PAR4” (MONASH UNIVERSITY, priority 2017, dated 2025).
Blank lines part the entries; values can stand above or below the molecule they belong to.

Assays:
PAR1 = molecular target: T1, PAR1 (Homo sapiens, UniProt P25116); details: in combination with single or dual antiplatelet therapy; cited from earlier work
T1 construct: host or cells: patients in clinical trials
T1 sequence (P25116 22-425): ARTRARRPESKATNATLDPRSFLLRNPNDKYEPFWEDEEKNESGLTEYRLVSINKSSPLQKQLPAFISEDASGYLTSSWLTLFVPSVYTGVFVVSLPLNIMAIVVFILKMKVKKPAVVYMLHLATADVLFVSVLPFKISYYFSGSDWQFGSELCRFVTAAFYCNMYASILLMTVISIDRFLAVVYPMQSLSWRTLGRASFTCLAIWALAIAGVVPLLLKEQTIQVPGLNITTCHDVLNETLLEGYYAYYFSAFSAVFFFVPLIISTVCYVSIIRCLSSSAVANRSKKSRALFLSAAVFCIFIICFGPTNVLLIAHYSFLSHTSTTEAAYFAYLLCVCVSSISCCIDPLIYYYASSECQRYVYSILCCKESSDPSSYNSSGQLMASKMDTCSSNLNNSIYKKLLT

PAR2 = molecular target: T2, PAR2 (Homo sapiens, UniProt P55085); assay: ELISA binding ratio to PAR2; details: second screening
T2 construct: host or cells: synthetic peptide
Experimental: (§1) 96-well ELISA plates were coated with 50 μl of antigen diluted to a concentration of 4 μg/ml in coating buffer (0.1M Sodium Hydrogen Carbonate (NaHCO3) (Merck, #1.06329.0500)). Plates were incubated overnight at 4° C.
(§2) Wells were then washed with an automated plate washer (300 μl 1×PBS, 3 times). The wells were blocked with 200 μl of blocking buffer (3% BSA/1×PBS (BSA: (Sigma, #1001647742)) for 1 hour at room temperature followed by washing as above.
(§3) 50 μl of undiluted hybridoma cell culture supernatant was added into appropriate wells and incubated at room temperature for 1 hour followed by washing as above. […] Wells were washed as above. A set of substrate tablets (1×silver, 1×gold) into 20 ml of ddH20 by shaking vigorously on the thermomixer for 6 mins at room temperature. 50 μl of substrate ([…]™ p-Nitrophenyl phosphate Tablets (Sigma-Aldrich, N2770-50SET)) was added into each well and incubated for 20-25 mins at room temperature. 50 μl of STOP solution (2M Sodium Hydroxide, Solid (NaOH) (Merck, Cas #1310-73-2)) was added into each well to stop the reaction. Absorbance was read at 405 nm immediately after adding STOP solution with the ELISA reader, using the ‘RdrOle4’ software.

human platelets = assay: Functional screen of hybridoma supernatants by platelet aggregation assay; type: cell-based; details: aggregation as % of control
Experimental: Platelet aggregation was measured by light transmission aggregometry in a 96-well plate format. Human isolated platelets (2×10^8/ml) were pre-treated for 10 mins at 37° C. with dimethylsulfoxide (DMSO) (1% v/v), the PAR1 antagonist vorapaxar (90 nM), the anti-PAR4 antibody 5RC3 (20-100 μg/ml), or a combination of vorapaxar and 5RC3. Platelets were treated with one of thrombin (0.1 U/ml) and aggregation was analysed at 37° C. in a FLUOstar OPTIMA plate reader (BMG Labtech) using a 595 nm excitation filter, for a period of 50 min (10 read cycles with 5 min double orbital shake period between each read). Optical density was normalised against the blank (maximum) and unstimulated platelets (minimum) and expressed as % maximum.
Thrombin-induced platelet aggregation in the presence of a PAR1 antagonist (i.e. PAR4-dependent aggregation) is shown for 30 monoclonal antibody supernatants binding to human platelets. Antibody supernatant was mixed with human platelets (2×10^8 cells) at a 1:1 ratio.

[1] = molecular target: T3, human PAR4 containing an N-terminal FLAG tag (Homo sapiens, UniProt Q96RI0); assay: PAR4 thrombin cleavage assay, FLAG-tagged PAR4 on HEK293 cells, flow cytometry; type: cell-based
T3 construct: expressed in transfected cells; host or cells: HEK293 / HEK293T
T3 sequence (Q96RI0 18-385): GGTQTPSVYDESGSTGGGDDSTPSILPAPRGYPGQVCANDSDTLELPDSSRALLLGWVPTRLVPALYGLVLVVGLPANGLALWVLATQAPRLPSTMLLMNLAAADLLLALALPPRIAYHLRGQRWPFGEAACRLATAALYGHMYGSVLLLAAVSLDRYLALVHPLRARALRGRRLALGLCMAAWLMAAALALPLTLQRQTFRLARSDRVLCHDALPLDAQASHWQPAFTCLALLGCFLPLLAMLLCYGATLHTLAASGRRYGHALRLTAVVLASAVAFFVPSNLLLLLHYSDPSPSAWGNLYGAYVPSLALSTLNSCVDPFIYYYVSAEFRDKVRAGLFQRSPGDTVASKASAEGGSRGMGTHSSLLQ
Experimental: 1×10^6 HEK293T cells (in Dulbecco's modified eagle's medium+10% foetal calf serum) were seeded onto 12-well plates 24 hours before transfection. When confluent, they were transiently transfected with 1 μg of DNA from one of the PAR4 variants (expression vectors pBJ-FLAG-PAR4-120A-296F or pBJ-FLAG-PAR4-120T-296F; Edelstein et al (2014) Blood 124(23):3450-8) plus 4 μL of Lipofectamine 2000, as per manufacturer's instructions. Forty-eight hours after transfection, cells were harvested and washed twice with PBS, then resuspended to a count of 1×10^6/mL. Cells (50 μL assays/0.5×10^5 cells per condition) were then pre-treated with either 1, 10 or 100 μg/mL of 5RC3 or sub-clone 5A.RC3.F10b.H4b or 100 μg/mL matched Isotype control (mouse IgG1) for 15 minutes at 37° C. Cells were then stimulated with 2 U/mL of thrombin for 10 minutes. The reaction was stopped by the addition of 4 U/mL hirudin. Cells were then washed once and resuspended with PBS containing a 1:200 dilution of FITC anti-FLAG antibody (Sigma, clone M2) and incubated for 1 hour at room temperature in the dark. Cells were then fixed with 1% paraformaldehyde (final concentration) and read on a FACSCalibur flow cytometer to determine % of FL1/FITC-Positive events. Data were normalised against the resting sample (100%, no thrombin treatment).
Monoclonal antibody hybridoma supernatants (MoB5ARC3, MoB5BRB4, MoB5BRC6, MoB5BRH3 and MoB5CRC4) were screened for their ability to […] intact PAR4 present on the surface of HEK293 cells transfected with human PAR4 containing an N-terminal FLAG tag.
[…] Cleavage of PAR4 by thrombin was measured by loss of FLAG tag from the PAR4 expression HEK293T cells using flow cytometry.

native PAR4 peptide = molecular target: T4, native PAR4 peptide (Homo sapiens, UniProt Q96RI0); assay: ELISA screening of hybridoma supernatants, native vs KLH-linked PAR4 peptide; type: binding; details: first screening; clone; hybridoma supernatant
T4 construct: host or cells: synthetic peptide
Experimental: as §1, §2, §3

T2 sequence (P55085 with tags, fused parts or gaps limits assumed): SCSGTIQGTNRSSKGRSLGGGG

Molecule: CCOC(=O)N[C@@H]1CC[C@@H]2[C@@H](C1)C[C@H]1C(=O)O[C@H](C)[C@H]1[C@H]2/C=C/c1ccc(-c2cccc(F)c2)cn1 [vorapaxar]
intracranial bleeding (PAR1): significantly increased rates of intracranial bleeding

B1: MoB5G G1: hybridoma supernatant clone, second screening; likely parent of 5G.RG1 (antibody, V domains shown)
VH: QVQLVESGGGVVQPGRSLRLSCVASGFTLSSYGMHWVRQAPGKGLEWVAVIWYDGSSKYYTDSVKGRFDISRDNSKNTLYLQMNILRAEDTAVYYCARETILIGGVPFDYWGQGTLVTVSS
VL: EIVLTQSPGTLSLSPGERATLSCGASQSIRSNYLAWYQQKPGQAPRLLIYGASSRATGTPDRFSGSGSGTDFTLTITRLEPEDFALYYCQQYGRSYTFGQGTKLEIK
Binding to PAR2 ratio (PAR2): 1.0 | Functional screen on hybridoma supernatants (human platelets): Yes (+++) (aggregation <25% of control)

Now from value to molecule, other results behind:

Binding to PAR2 ratio (PAR2): 1.3
B2: MoB5F E6: hybridoma supernatant clone, second screening; likely parent of 5F.RE6 (antibody, V domains shown)
VH: QVQLAESGGGVVQPGRSLRVSCAASGFTFSSYGMHWVRQAPGKGLEWVAVIWYDGTKKYYADSLKGRFTISRDNSKYTLYLQMNSLRADDTALYFCARKGARGITGLDYWGQGTLVTVSS
VL: DIQMTQSPSSLSASAGDRITITCRASQSISNYLNWYQQKPGKAPKLLIYAASSLQSGVPSRFSGSGSGTDFTLTISSLQPEDFASYYCRQNYNTPLTFGGGTKVEIK
Functional screen on hybridoma supernatants (human platelets): Yes (+) (aggregation between 50-80% of control)

blocked thrombin-induced cleavage of PAR4 ([1]; initial screen of hybridoma supernatants, thrombin 2 U/ml for 10 mins): at least 90% | Fold binding native vs KLH-linked PAR4 peptide (native PAR4 peptide): 19.9
B3: MoB5AR C3: parent hybridoma clone (supernatant) from which 5A.RC3.F10b.H4b was sub-cloned (antibody, V domains shown)
VH: QVQLVESGGGVVQPGRSLRLSCAASGFTLSNYGMHWVRQAPGKGLEWVSVIWYDGSNKHYADSVKGRFTISRDNSKNTLYLQMNSLRAEDTAVYYCARESIVEVLPPFDYWGQGTLVTVSS
VL: KIVLTQSPGTLSLSPGERVTLSCRASQRVRNNYLAWFQQKPGQAPRLFIYGASSRATGIPDRFSGSGSGTDFIFTISRLEPEDFAVYYCQQYGNSYTFGQGTKLEIK
modifications: VH of 5A.RC3; VL of 5A.RC3
notes: parent hybridoma clone (supernatant) from which 5A.RC3.F10b.H4b was sub-cloned
Functional screen on hybridoma supernatants that exhibited binding ([1]; % of uncleaved PAR4 peptide expressed on HEK293 cells): Yes (Hybridoma supernatants that demonstrated greater than 70% of uncleaved PAR4 were considered positive) | block of thrombin-induced cleavage of PAR4 ([1]; initial screen, thrombin 2 U/ml for 10 mins): almost completely blocked thrombin-induced cleavage of PAR4
